Measurements as given in the supplement of paper PMC10065799, “High-throughput profiling of sequence recognition by tyrosine kinases and SH2 domains using bacterial peptide display” (eLife, 2023).

Biological target: Hck (UniProt P08631)
Test: phosphorylation enrichment, bacterial display (enrichment ratio); higher = better substrate or ligand; peptides without Tyr show the background
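Also: 11-residue human phosphosite peptides and single-mutation variants displayed on the E. coli surface, counted by deep sequencing, each peptide's frequency after selection divided by its frequency in the unselected input library; frequency after pTyr selection over input frequency; kinase dosed for 20-30% of maximal phosphorylation in three min.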

Sequence of Hck (P08631 whole entry, looked up): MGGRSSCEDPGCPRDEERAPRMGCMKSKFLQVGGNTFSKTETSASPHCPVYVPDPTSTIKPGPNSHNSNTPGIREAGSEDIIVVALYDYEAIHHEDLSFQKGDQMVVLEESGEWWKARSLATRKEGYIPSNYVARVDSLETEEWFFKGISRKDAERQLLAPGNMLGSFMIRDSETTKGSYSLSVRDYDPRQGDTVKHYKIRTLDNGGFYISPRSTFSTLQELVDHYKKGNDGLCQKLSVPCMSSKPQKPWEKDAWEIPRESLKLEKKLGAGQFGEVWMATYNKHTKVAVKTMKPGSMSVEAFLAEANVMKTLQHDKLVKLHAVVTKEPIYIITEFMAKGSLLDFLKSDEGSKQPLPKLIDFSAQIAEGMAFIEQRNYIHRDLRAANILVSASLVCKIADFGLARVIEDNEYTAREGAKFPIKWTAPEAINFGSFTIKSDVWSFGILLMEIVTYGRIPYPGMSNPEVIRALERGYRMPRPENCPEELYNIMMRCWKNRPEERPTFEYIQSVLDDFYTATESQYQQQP

Sequence	phosphorylation enrichment
YQLPYYNMVPS [BMPR1A_Y458]	3.28
VMTSKYRGGGG [HBA1_Y141_L137M]	0.39
FFSSEYHFVGG [CTSC_Y345_YF]	2.44
DLNATYCTIQG [U2SURP_Y634_R635C]	7.17
MVIPNYSSWTE [UROC1_Y185_R188W]	0.862
KLLLKYSFHDV [RNF213_Y4141]	0.506
HAVEDYQAIVD [CCT7_Y263_T259A]	0.714
PRQRRYVFFFS [PTEN_Y174_S170R_YF]	0.446
LFLASYCIGGG [UBD_Y161_C160S]	0.533
EGGFAYVPLKD [PRIM2_Y208_D204G]	0.404
PDMHSYMVRYN [GRIN2D_Y732]	0.706
DRTVHYVDEKG [IFT140_Y216_G212R]	0.441
GSIQQYIYKQE [PRG4_Y1271]	0.439
SSSAIYDNPNL [DCP1B_Y191]	9.85
EERKTYVNTTL [TEK_Y1102]	0.48
KRLDGYVLEGW [IGSF9_Y656_R661W]	0.453
TEYIQYVRRKN [MAX_Y73_M74V]	0.589
SHGQDYLAGNK [GSTA2_Y147_V149A]	0.364
PSSRDYKDNIK [PIGN_Y227_H229D]	0.381
TIWDSYTTNKV [GNB1_Y85_I80T]	0.473
SMAKYYASGIA [ACADSB_Y373_E376G]	0.463
GRSTFYWPRPR [GAGE12J_Y10_YF]	0.713
AFDNLYYWDQD [ERBB2_Y1221]	5.36
VEKEKYVSFIS [JMJD1C_Y596_M591V_YF]	0.577
PLRANYLIARV [HLCS_Y635_D634N]	0.763
CKLVDYDSARH [BIN1_Y150_R145C]	0.414
FAKSVYWDNTL [NUP107_Y296_E298D_YF]	0.578
IDAICYYRMEN [NPHS2_Y194]	0.8
CEHRGCLYLAI [TEK_Y897_Y897C]	0.466

Biological target: FGFR1 (UniProt P11362)
Test: as above

Sequence of FGFR1 (P11362 whole entry, looked up): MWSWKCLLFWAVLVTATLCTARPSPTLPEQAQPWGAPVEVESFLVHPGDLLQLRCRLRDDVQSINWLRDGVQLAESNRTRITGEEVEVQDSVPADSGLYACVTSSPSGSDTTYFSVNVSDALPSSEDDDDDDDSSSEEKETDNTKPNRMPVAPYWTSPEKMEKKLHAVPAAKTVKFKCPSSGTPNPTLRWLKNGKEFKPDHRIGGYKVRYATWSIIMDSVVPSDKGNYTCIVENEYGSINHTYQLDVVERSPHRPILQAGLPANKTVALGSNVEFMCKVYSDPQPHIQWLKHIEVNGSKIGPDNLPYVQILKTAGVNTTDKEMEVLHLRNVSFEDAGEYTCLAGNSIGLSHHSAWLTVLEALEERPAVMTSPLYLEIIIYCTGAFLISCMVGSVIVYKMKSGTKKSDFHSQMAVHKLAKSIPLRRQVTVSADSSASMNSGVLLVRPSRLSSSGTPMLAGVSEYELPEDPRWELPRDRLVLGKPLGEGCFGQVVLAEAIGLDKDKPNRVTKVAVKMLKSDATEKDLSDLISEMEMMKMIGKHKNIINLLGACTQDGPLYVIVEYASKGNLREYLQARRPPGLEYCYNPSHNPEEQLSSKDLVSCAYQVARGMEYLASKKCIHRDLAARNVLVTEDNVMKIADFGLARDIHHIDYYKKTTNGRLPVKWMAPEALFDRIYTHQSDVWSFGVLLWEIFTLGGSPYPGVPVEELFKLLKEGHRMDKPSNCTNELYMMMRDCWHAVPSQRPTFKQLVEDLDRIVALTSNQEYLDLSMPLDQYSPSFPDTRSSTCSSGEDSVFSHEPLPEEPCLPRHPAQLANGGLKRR

Sequence	phosphorylation enrichment
YQLPYYNMVPS [BMPR1A_Y458]	13.1
VMTSKYRGGGG [HBA1_Y141_L137M]	0.444
FFSSEYHFVGG [CTSC_Y345_YF]	14.2
DLNATYCTIQG [U2SURP_Y634_R635C]	1.06
MVIPNYSSWTE [UROC1_Y185_R188W]	1.11
KLLLKYSFHDV [RNF213_Y4141]	0.439
HAVEDYQAIVD [CCT7_Y263_T259A]	0.864
PRQRRYVFFFS [PTEN_Y174_S170R_YF]	0.62
LFLASYCIGGG [UBD_Y161_C160S]	1.06
EGGFAYVPLKD [PRIM2_Y208_D204G]	0.399
PDMHSYMVRYN [GRIN2D_Y732]	0.767
DRTVHYVDEKG [IFT140_Y216_G212R]	0.413
GSIQQYIYKQE [PRG4_Y1271]	0.507
SSSAIYDNPNL [DCP1B_Y191]	0.411
EERKTYVNTTL [TEK_Y1102]	0.464
KRLDGYVLEGW [IGSF9_Y656_R661W]	0.542
TEYIQYVRRKN [MAX_Y73_M74V]	0.528
SHGQDYLAGNK [GSTA2_Y147_V149A]	0.597
PSSRDYKDNIK [PIGN_Y227_H229D]	0.614
TIWDSYTTNKV [GNB1_Y85_I80T]	0.509
SMAKYYASGIA [ACADSB_Y373_E376G]	0.437
GRSTFYWPRPR [GAGE12J_Y10_YF]	0.48
AFDNLYYWDQD [ERBB2_Y1221]	9.23
VEKEKYVSFIS [JMJD1C_Y596_M591V_YF]	0.493
PLRANYLIARV [HLCS_Y635_D634N]	0.707
CKLVDYDSARH [BIN1_Y150_R145C]	0.395
FAKSVYWDNTL [NUP107_Y296_E298D_YF]	0.525
IDAICYYRMEN [NPHS2_Y194]	3.09
CEHRGCLYLAI [TEK_Y897_Y897C]	0.405

System: AncSZ
Test: as above

Sequence	phosphorylation enrichment
YQLPYYNMVPS [BMPR1A_Y458]	2.75
VMTSKYRGGGG [HBA1_Y141_L137M]	0.433
FFSSEYHFVGG [CTSC_Y345_YF]	2.52
DLNATYCTIQG [U2SURP_Y634_R635C]	1.31
MVIPNYSSWTE [UROC1_Y185_R188W]	1.31
KLLLKYSFHDV [RNF213_Y4141]	1.27
HAVEDYQAIVD [CCT7_Y263_T259A]	1.54
PRQRRYVFFFS [PTEN_Y174_S170R_YF]	0.739
LFLASYCIGGG [UBD_Y161_C160S]	1.22
EGGFAYVPLKD [PRIM2_Y208_D204G]	1.19
PDMHSYMVRYN [GRIN2D_Y732]	0.955
DRTVHYVDEKG [IFT140_Y216_G212R]	0.666
GSIQQYIYKQE [PRG4_Y1271]	0.651
SSSAIYDNPNL [DCP1B_Y191]	0.898
EERKTYVNTTL [TEK_Y1102]	0.83
KRLDGYVLEGW [IGSF9_Y656_R661W]	0.712
TEYIQYVRRKN [MAX_Y73_M74V]	0.712
SHGQDYLAGNK [GSTA2_Y147_V149A]	0.641
PSSRDYKDNIK [PIGN_Y227_H229D]	0.556
TIWDSYTTNKV [GNB1_Y85_I80T]	0.964
SMAKYYASGIA [ACADSB_Y373_E376G]	0.497
GRSTFYWPRPR [GAGE12J_Y10_YF]	0.831
AFDNLYYWDQD [ERBB2_Y1221]	2.31
VEKEKYVSFIS [JMJD1C_Y596_M591V_YF]	0.762
PLRANYLIARV [HLCS_Y635_D634N]	0.927
CKLVDYDSARH [BIN1_Y150_R145C]	0.777
FAKSVYWDNTL [NUP107_Y296_E298D_YF]	1
IDAICYYRMEN [NPHS2_Y194]	1.99
CEHRGCLYLAI [TEK_Y897_Y897C]	1.04

Biological target: EPHB2 (UniProt P29323)
Test: as above

Sequence of EPHB2 (P29323 whole entry, looked up): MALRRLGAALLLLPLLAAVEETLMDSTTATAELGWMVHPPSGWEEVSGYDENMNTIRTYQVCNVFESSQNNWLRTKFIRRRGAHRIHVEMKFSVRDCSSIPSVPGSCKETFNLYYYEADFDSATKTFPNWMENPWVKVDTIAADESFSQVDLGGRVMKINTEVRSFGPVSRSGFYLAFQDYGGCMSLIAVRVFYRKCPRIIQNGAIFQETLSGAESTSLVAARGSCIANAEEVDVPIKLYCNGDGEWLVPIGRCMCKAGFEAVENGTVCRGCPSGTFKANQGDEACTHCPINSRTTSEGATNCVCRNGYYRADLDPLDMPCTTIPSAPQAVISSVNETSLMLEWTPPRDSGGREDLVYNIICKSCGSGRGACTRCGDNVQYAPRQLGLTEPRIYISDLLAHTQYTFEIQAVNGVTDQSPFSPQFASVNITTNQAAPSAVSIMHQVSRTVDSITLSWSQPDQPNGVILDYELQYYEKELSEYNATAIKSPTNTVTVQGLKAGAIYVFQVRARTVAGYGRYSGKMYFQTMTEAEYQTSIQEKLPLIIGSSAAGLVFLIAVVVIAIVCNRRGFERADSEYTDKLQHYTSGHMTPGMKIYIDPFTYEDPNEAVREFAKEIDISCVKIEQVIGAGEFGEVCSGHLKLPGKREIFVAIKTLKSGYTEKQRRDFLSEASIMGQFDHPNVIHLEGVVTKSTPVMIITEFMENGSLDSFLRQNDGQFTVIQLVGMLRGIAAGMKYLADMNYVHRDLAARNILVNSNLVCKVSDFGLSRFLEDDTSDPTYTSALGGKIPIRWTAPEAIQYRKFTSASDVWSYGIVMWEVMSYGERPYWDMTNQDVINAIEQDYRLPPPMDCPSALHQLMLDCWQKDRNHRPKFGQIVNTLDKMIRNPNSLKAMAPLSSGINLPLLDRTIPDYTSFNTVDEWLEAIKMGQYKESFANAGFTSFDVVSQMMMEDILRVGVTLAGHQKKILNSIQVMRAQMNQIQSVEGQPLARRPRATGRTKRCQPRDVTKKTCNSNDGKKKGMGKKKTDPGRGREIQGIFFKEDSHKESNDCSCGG

Sequence	phosphorylation enrichment
YQLPYYNMVPS [BMPR1A_Y458]	2.52
VMTSKYRGGGG [HBA1_Y141_L137M]	0.427
FFSSEYHFVGG [CTSC_Y345_YF]	3.73
DLNATYCTIQG [U2SURP_Y634_R635C]	5.72
MVIPNYSSWTE [UROC1_Y185_R188W]	13.5
KLLLKYSFHDV [RNF213_Y4141]	0.598
HAVEDYQAIVD [CCT7_Y263_T259A]	1.03
PRQRRYVFFFS [PTEN_Y174_S170R_YF]	0.343
LFLASYCIGGG [UBD_Y161_C160S]	0.788
EGGFAYVPLKD [PRIM2_Y208_D204G]	0.567
PDMHSYMVRYN [GRIN2D_Y732]	0.787
DRTVHYVDEKG [IFT140_Y216_G212R]	0.436
GSIQQYIYKQE [PRG4_Y1271]	0.567
SSSAIYDNPNL [DCP1B_Y191]	15.6
EERKTYVNTTL [TEK_Y1102]	0.519
KRLDGYVLEGW [IGSF9_Y656_R661W]	0.484
TEYIQYVRRKN [MAX_Y73_M74V]	0.425
SHGQDYLAGNK [GSTA2_Y147_V149A]	0.36
PSSRDYKDNIK [PIGN_Y227_H229D]	0.467
TIWDSYTTNKV [GNB1_Y85_I80T]	0.452
SMAKYYASGIA [ACADSB_Y373_E376G]	0.7
GRSTFYWPRPR [GAGE12J_Y10_YF]	0.472
AFDNLYYWDQD [ERBB2_Y1221]	4.41
VEKEKYVSFIS [JMJD1C_Y596_M591V_YF]	0.52
PLRANYLIARV [HLCS_Y635_D634N]	0.861
CKLVDYDSARH [BIN1_Y150_R145C]	0.447
FAKSVYWDNTL [NUP107_Y296_E298D_YF]	0.772
IDAICYYRMEN [NPHS2_Y194]	0.721
CEHRGCLYLAI [TEK_Y897_Y897C]	0.506
